From publication doi:10.1101/2022.08.26.505453 come the findings set out here.

Several values for one entry are separate records, joined by “and”; a condition that tells them apart may be missing. Equal entries are not always repeated.

The target in test [1] is MBP-Vpu fusion protein (His8 tag, maltose binding protein, 11-residue linker, full-length HIV-1 Vpu with Q36C) (HIV-1). The experiment in a line: SEC. For orientation: In gel filtration, larger molecules generally elute earlier.
The target is the same in test [2]. The experiment in a line: SEC. The source holds these as a separate data set.
For test [3] the target is unchanged. The experiment in a line: negative staining electron microscopy.
Test [4] has the same target. The experiment in a line: SDS-PAGE and western blot. On the technique in general: Immunoblotting shows a protein as a band on a membrane.
Test [5] has the same target. Put plainly: SEC. This is another data set of the same source.

Consider “MBP-Vpu fusion protein (His8 tag, maltose binding protein, 11-residue linker, full-length HIV-1 Vpu with Q36C)”, for which the stoichiometry N is 5 and 4 in test [1]; 5 and 4 in test [2]; 5 in test [3]; 2 and 5 in test [4]; 5 in test [5].

What is called stoichiometry N is the number of molecules, sites or subunits per partner or assembly.
